Results reported in patent US20220348670A1 (BIODURO BEIJING, published 2022).

T1: full-length human OX40 protein (human, UniProt P43489 29-277)
T1 sequence (looked up): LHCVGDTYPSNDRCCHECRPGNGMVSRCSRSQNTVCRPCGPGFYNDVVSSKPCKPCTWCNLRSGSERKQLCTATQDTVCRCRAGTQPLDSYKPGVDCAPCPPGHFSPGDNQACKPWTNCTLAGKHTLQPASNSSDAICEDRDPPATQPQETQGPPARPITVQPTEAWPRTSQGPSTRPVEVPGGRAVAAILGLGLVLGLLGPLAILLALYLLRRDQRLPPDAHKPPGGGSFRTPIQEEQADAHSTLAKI

T2: OX40-mFc protein (UniProt P43489 29-214)
T2 sequence (looked up): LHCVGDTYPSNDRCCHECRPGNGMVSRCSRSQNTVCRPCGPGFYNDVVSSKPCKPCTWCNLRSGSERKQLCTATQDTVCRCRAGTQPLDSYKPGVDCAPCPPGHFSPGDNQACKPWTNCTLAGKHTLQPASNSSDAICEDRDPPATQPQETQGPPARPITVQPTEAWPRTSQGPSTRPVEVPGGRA

T3: murine full-length OX40 (murine, UniProt P47741 20-272)
T3 construct: whole, on cells; also called CHOS-OX40 (mus); PCMV3-OX40 (Mus)
T3 sequence (looked up): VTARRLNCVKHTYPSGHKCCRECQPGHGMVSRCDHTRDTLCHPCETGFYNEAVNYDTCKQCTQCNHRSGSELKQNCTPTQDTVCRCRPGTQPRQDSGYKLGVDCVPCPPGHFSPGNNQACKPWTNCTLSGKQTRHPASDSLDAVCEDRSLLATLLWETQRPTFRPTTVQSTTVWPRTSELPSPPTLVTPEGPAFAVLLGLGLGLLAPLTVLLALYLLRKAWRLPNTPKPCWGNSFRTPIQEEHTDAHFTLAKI

T4: OX40 (CRD3-4human) (human, UniProt P43489 108-277, limits assumed)
T4 construct: domain: CRD3-4; Named only in the results sentence; its construction is not described; also called CHOS-OX40 (CRD3-4human)
T4 sequence (looked up): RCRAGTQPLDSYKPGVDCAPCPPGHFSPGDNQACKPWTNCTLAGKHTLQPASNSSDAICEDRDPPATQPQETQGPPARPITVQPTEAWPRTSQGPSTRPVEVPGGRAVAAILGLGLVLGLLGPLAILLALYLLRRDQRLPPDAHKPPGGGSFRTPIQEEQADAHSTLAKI


Key:
[1] = target: T1, full-length human OX40 protein; assay: cell-based or functional assay
[2] = target: T1, full-length human OX40 protein; assay: FACS on Jurkat-hOX40 cells, PE anti-human FC secondary antibody
Description: Jurkat-hOX40 stable cell lines constructed in Example 2.1 were expanded and cultured in a cell culture flask, and cells in the logarithmic growth phase were counted. The cells were centrifuged at 1000 rpm for 5 min and then resuspended in FACS buffer (PBS+1% FBS) to 2×10⁶ cells/mL, and added to a 96-well FACS culture plate at 200 μL per well. After centrifugation at 1000 rpm for 5 min, the supernatant was removed, and a series of concentration gradients of purified anti-human OX40 antibodies to be tested or isotype control were added at 200 μL per well, incubated at 4° C. for 1 hour in the dark, centrifuged at 1000 rpm for 5 min, and then added with 200 μL of PE fluorescently labeled anti-human FC secondary antibody (purchased from Invitrogen) per well, and incubated at 4° C. for 1 hour in the dark. After washing twice with FACS buffer, PBS buffer containing 1% paraformaldehyde at 200 μL per well was added to resuspend cells, and a FACS instrument (BD Accuri C6) was used for detection and analysis.

[3] = target: T1, full-length human OX40 protein; assay: FACS on L929-hOX40 cells, PE anti-human FC secondary antibody
Description: The L929-hOX40 stable cell line constructed in Example 2.1 was cultured and expanded to 90% confluence in a cell culture flask. After washing with PBS, the cell culture was digested with 0.25% Trypsin (purchased from Thermofisher) to form a single-cell suspension, neutralized with 10% FBS-containing medium, and counted. After centrifugation at 1000 rpm for 5 min, the cells were resuspended to 2×10⁶ cells/mL with FACS buffer (PBS+1% FBS), added to a 96-well FACS culture plate at 200 μL per well, centrifuged at 1000 rpm for 5 min and the supernatant was removed. A series of concentration gradients of anti-human OX40 antibodies to be tested or isotype control were added at 200 μL per well, and incubated at 4° C. for 1 hour in the dark. After centrifugation at 1000 rpm for 5 min, 200 μL of PE fluorescently labeled anti-human FC secondary antibody (purchased from Invitrogen) was added to each well, and incubated at 4° C. for 1 hour in the dark. After washing twice with FACS buffer, PBS buffer containing 1% paraformaldehyde at 200 μL per well was added to resuspend the cells, and a FACS instrument (BD Accuri C6) was used for detection and analysis.

Milk = assay: phage ELISA, monoclonal phage supernatant on milk (background control)
OX40-mFc protein = target: T2, OX40-mFc protein; assay: phage ELISA, monoclonal phage supernatant on OX40-mFc
murine full-length OX40 = target: T3, murine full-length OX40; assay: FACS on transiently transfected CHO-S cells
Source text: (§1) Transient transfection of OX40 expression vector: CHO-S cells were revived, and passaged for at least 2 times, and then seeded into a 6-well plate at a density of 1×10⁶ cells/well. At the following day, the above expression vectors expressing different domains of OX40 were transfected into CHO-S cells by PEI transfection method.

OX40 (CRD3-4human) = target: T4, OX40 (CRD3-4human); assay: FACS on transiently transfected CHO-S cells
Source text: as §1

Molecule | Maximum value (RLU), NF-kB reporter gene assay [1] | Maximum mean fluorescence intensity value (MFI) [2] | Maximum mean fluorescence intensity value (MFI) [3] | ELISA Results (OD450) (Milk) | ELISA Results (OD450) (OX40-mFc protein) | EC50, NF-kB reporter gene assay [1] | EC50 [2] | binding result (murine full-length OX40) | binding result (OX40 (CRD3-4human)) | EC50 [3]
Isotype control (human IgG) (antibody) | 2650 RLU | 999 MFI | 8960 MFI | – | – | – | – | – | – | –
OX40 BC3-4 (phage-displayed VHH clone) (VHH, Tested as phage in monoclonal culture supernatant (M13 display), not as purified protein; the phage coat fusion is not described) VHH: EVQLVESGGGLVQPGGSLRLSCAASGFIFSAYFMGWFRQAPGKGRELVAAINSNDDITYYPDSVEGRFTISRDNAKRMVYLQMNSLRAEDTAVYYCAAWLGAENYGYWGQGTQVTVSS | – | – | – | 0.045 OD450 | 3.31 OD450 | – | – | – | – | –
anti-human OX40 antibody BC3-4 (OX40 VHH-Fc) (Fc fusion, VHH fused through a linker to human IgG Fc, expressed in ExpiCHO, purified on Protein A; also called OX40 BC3-4; OX40 VHH-Fc antibody; not shown: linker encoded by the CMV-12GS-FC vector; human IgG FC fragment (hFC)) EVQLVESGGGLVQPGGSLRLSCAASGFIFSAYFMGWFRQAPGKGRELVAAINSNDDITYYPDSVEGRFTISRDNAKRMVYLQMNSLRAEDTAVYYCAAWLGAENYGYWGQGTQVTVSS | 55700 RLU | 24000 MFI | 308000 MFI | – | – | 0.175 nM | 0.395 nM | no binding | no binding | 0.862 nM
OX40 BC3-6 (phage-displayed VHH clone) (VHH, Tested as phage in monoclonal culture supernatant (M13 display), not as purified protein; the phage coat fusion is not described) VHH: EVQLVESGGGLVQPGGSLRLSCAASGSILDSNLMGWFRQAPGKGRELVASINSYDDNTYYPDSVEGRFTISRDNAKRMVYLQMNSLRAEDTAVYYCAAQVFVGWPYTDQMHDYWGQGTQVTVSS | – | – | – | 0.045 OD450 | 3.21 OD450 | – | – | – | – | –
anti-human OX40 antibody BC3-6 (OX40 VHH-Fc) (Fc fusion, VHH fused through a linker to human IgG Fc, expressed in ExpiCHO, purified on Protein A; also called OX40 BC3-6; OX40 VHH-Fc antibody; not shown: linker encoded by the CMV-12GS-FC vector; human IgG FC fragment (hFC)) EVQLVESGGGLVQPGGSLRLSCAASGSILDSNLMGWFRQAPGKGRELVASINSYDDNTYYPDSVEGRFTISRDNAKRMVYLQMNSLRAEDTAVYYCAAQVFVGWPYTDQMHDYWGQGTQVTVSS | 50300 RLU | 12800 MFI | 198000 MFI | – | – | 0.162 nM | 0.683 nM | no binding | no binding | 0.545 nM
OX40 BC3-7 (phage-displayed VHH clone) (VHH, Tested as phage in monoclonal culture supernatant (M13 display), not as purified protein; the phage coat fusion is not described) VHH: EVQLVESGGGLVQPGGSLRLSCAASGSIYDFDVMGWFRQAPGKGRELVAAINSFGDITYYPDSVEGRFTISRDNAKRMVYLQMNSLRAEDTAVYYCAADWHVLIQQVLGYWGQGTQVTVSS | – | – | – | 0.045 OD450 | 3.12 OD450 | – | – | – | – | –
anti-human OX40 antibody BC3-7 (OX40 VHH-Fc) (Fc fusion, VHH fused through a linker to human IgG Fc, expressed in ExpiCHO, purified on Protein A; also called OX40 BC3-7; OX40 VHH-Fc antibody; not shown: linker encoded by the CMV-12GS-FC vector; human IgG FC fragment (hFC)) EVQLVESGGGLVQPGGSLRLSCAASGSIYDFDVMGWFRQAPGKGRELVAAINSFGDITYYPDSVEGRFTISRDNAKRMVYLQMNSLRAEDTAVYYCAADWHVLIQQVLGYWGQGTQVTVSS | 48400 RLU | 24100 MFI | 327000 MFI | – | – | 0.13 nM | 0.548 nM | no binding | no binding | 0.693 nM
OX40 BC3-1 (phage-displayed VHH clone) (VHH, Tested as phage in monoclonal culture supernatant (M13 display), not as purified protein; the phage coat fusion is not described) VHH: EVQLVESGGGLVQPGGSLRLSCAASGSIFSVYVMGWFRQAPGKGRELVAAITPFDDNTYYPDSVEGRFTISRDNAKRMVYLQMNSLRAEDTAVYYCAADWEWPEYNYWGQGTQVTVSS | – | – | – | 0.047 OD450 | 3.45 OD450 | – | – | – | – | –
anti-human OX40 antibody BC3-1 (OX40 VHH-Fc) (Fc fusion, VHH fused through a linker to human IgG Fc, expressed in ExpiCHO, purified on Protein A; also called OX40 BC3-1; OX40 VHH-Fc antibody; not shown: linker encoded by the CMV-12GS-FC vector; human IgG FC fragment (hFC)) EVQLVESGGGLVQPGGSLRLSCAASGSIFSVYVMGWFRQAPGKGRELVAAITPFDDNTYYPDSVEGRFTISRDNAKRMVYLQMNSLRAEDTAVYYCAADWEWPEYNYWGQGTQVTVSS | 53400 RLU | 17500 MFI | 285000 MFI | – | – | 0.209 nM | 0.257 nM | no binding | no binding | 0.488 nM
